What was measured:
[1] = tested on: human iPS cell-derived endothelial cells (ECs) from an AD patient; test: AgNP binding to hiPSC-derived brain endothelial cells; assay type: cell-based
Source text: Human iPS cell-derived from an AD patient and from a normal individual were differentiated into endothelial cells and the cultured cells were used in an overlay assay with DAG-coated and control AgNP.
The details of human induced pluripotent stem cells (hiPSCs) derived from Alzheimer disease patients with APP duplication, and non-demented control individuals, are described previously (Israel et al., Nature 482, 216-220 (2012)). These hiPSCs were extensively characterized and have been established as an excellent human model for AD. An additional AD hiPSC line generated from dermal fibroblasts from an individual harboring a Presenilinl (PSEN1) mutation (Coriell Institute, Cat #AG06840) was used to further validate the results from the APP lines. hiPSCs were routinely maintained on mouse embryonic fibroblast as described before (Lin et al., Nat Methods 6, 805-808 (2009); Talantova et al., Proc Natl Acad Sci USA 110, E2518-2527 (2013)). Brain microvascular endothelial cells differentiation of hiPSCs was performed using a previously described protocol (Lippmann et al., Nature biotechnology 30, 783-791 (2012), with minor modifications. Briefly, feeder-free cultures of hiPSCs were allowed to spontaneously differentiate in the absence of bFGF for 5-7 days, and then transferred to Endothelial cell (EC) medium composed of human Endothelial Serum-Free Medium™ (Invitrogen) supplemented with 20 ng/ml bFGF and 1% platelet-poor plasma-derived bovine serum (PDS; Biomedical Technologies). After 1-2 days the cells were dissociated with dispase (2 mg/ml) and were plated on 12 well plates coated with a mixture of collagen IV (400 μg/ml) and fibronectin (100 μg/ml). Cells were then cultured in EC medium until they reached confluence, after which they were split and expanded to near 100% purity. BBB-type EC identity was confirmed by flow cytometry or double immunoreactivity to the hallmark efflux transporter p-glycoprotein and other EC markers (CD31, GLUT-1, PECAM, Occludin, and Claudin-5). Furthermore, the capability of these cells to make functional tight junctions and polarized efflux activity was validated using a dual chamber efflux transport assay as described before.
Cell binding experiments on U251 cells and hiPSCs were with done using peptide conjugated AgNP. U251 cells were cultured in a 96-well plate. The cells were blocked with 200 μl of 10% FCS in HBSS (Hanks' Balanced Salt Solution from Gibco) for 30 min at 37° C. Following that, DAG-AgNPs (0.5 nM concentration diluted in HBSS) alone or in the presence of free non-labeled peptide (200 μM) were incubated on the cells for 1 hour at 37° C. After washing the unbound AgNP with HBSS three times, the plates were imaged with fluorescent microscopy by looking at intrinsic emission from the FAM tag on the peptide. hiPSCs were cultured in 48 well plate and similar protocol as described above was followed, with the exception that AgNP concentration for incubation was kept at 0.15 nM. Nanoparticle binding was quantified from fluorescence micrographs using ImageJ™ software.

recombinant human CTGF = biological target: T1, recombinant human CTGF (Homo sapiens, UniProt P29279); test: ELISA binding to recombinant CTGF
T1 construct: purchased Affymetrix 14-8503-80
T1 sequence (P29279 253-349 limits assumed): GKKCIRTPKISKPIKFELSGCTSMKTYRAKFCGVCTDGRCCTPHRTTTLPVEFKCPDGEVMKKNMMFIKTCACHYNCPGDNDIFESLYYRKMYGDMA
Description: FIG. 10 is a graphical representation relating to identification of a receptor for DAG. DAG binds to recombinant CTGF. FAM-DAG was incubated on ELISA plate coated with recombinant human CTGF at two different peptide concentrations of the FAM peptide alone (light gray bars), or in the presence of non-labeled DAG (0.5 mM) (dark gray bars). […] DAG was also shown to colocalize with CTGF. FAM-DAG was intravenously injected in 9-month-old hAPP-J20 and WT mice, allowed to circulate for 30 minutes, after which mice were perfused, and the brains were fixed, sectioned and stained for FAM (green) and CTGF (red).
Human CTGF recombinant protein (Affymetrix Cat #14-8503-80) was incubated on Nunc low-binding plates at concentration of 10 μg/ml for overnight at 4° C. Excess protein in the plates was removed by washing with PBS-T (PBS with 0.005% Tween 20). Plates were blocked with 200 μl of 3% non-fat milk in PBS for 1 hour at room temperature and washed with PBS-T once. Biotin-labeled peptide (at different concentrations) in PBS was added to the plate for 2 hours at 37° C. For peptide inhibition, non-labeled DAG peptide (0.5 mM) was added 30 minutes prior to addition of labeled peptide. The plates were washed with 100 μl PBS-T for three times to remove excess peptide. The bound peptide was detected by incubating with 100 μl of Vectastain ABC™ reagent (Vector labs, Burlingame, Calif.) for 30 minutes. The plate was washed with 100 μl PBS-T three times. Next, 100 μl of o-phenylenediamine dihydrochloride (OPD) silver and gold substrate (Sigma-Aldrich) was added to the wells and incubated at room temperature until visible color was observed (˜30 min). Adding 50 μl of 1 M H2SO4 stopped the reaction and the plate was read at 495 nm (FlexStation™ 3 Reader, Molecular Devices, Sunnyvale, Calif., USA).

albumin (BSA) = albumin (BSA) (Bos taurus, UniProt P02769); test: ELISA binding to control protein
Sequence of albumin (BSA) (P02769 25-607): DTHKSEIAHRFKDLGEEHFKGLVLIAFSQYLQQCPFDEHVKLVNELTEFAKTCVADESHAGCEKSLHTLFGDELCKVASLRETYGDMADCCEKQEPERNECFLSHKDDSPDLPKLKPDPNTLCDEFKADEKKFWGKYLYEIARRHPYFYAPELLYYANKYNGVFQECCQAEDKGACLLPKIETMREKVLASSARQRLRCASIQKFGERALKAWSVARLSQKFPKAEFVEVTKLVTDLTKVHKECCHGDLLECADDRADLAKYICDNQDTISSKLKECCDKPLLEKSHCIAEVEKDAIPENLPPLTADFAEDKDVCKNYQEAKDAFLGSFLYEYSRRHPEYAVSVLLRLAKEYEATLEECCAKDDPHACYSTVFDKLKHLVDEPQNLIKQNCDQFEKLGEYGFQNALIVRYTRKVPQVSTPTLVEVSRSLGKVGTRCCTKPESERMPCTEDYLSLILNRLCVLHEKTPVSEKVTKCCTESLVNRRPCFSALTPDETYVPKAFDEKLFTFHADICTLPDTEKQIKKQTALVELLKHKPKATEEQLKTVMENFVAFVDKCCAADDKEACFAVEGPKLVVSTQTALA

With CDAGRKQKC the “Binding to AD patient iPS cell-derived endothelial cells” value ([1]; AD patient vs normal donor cells) was “recognizes endothelial cells differentiated from AD iPS cells and not cells prepared similarly from a control individual”, the “Binding to hiPSC-derived BMECs from non-demented individual” value ([1]; control cells) was “did not bind to hiPSC-derived BMECs from a non-demented individual” and the “Binding to CTGF-coated plates” value (recombinant human CTGF; ELISA) was “bound to CTGF-coated plates in a dose-dependent manner”. For the same sequence, the “Inhibition of CTGF binding by unlabeled DAG” value (recombinant human CTGF; non-labeled DAG 0.5 mM) was “inhibited in the presence of an excess of unlabeled DAG” and the “Binding to control protein (BSA)” value (albumin (BSA)) was “only minimal binding to a control protein (BSA)”.

From patent US11571485B2, “Peptides and antibodies for detecting changes in alzheimer's disease brain and methods of use thereof” (Sanford Burnham Prebys Medical Discovery Institute, priority 2016, dated 2023)
